Data reported in US11667688B2, “Glucagon derivative and a composition comprising a long acting conjugate of the same” (HANMI PHARM. CO., LTD., priority 2015, dated 2023).
Bridge positions count the residues as written; N and C are the ends. Square brackets hold non-standard residues; d marks the D form. Ends that are not written are not given here. Aib = CC(C)(N)C(=O)O

Molecular target: T1, human glucagon receptors (Homo sapiens, UniProt P47871)
T1 construct: a region corresponding to Open Reading Frame (ORF) in the cDNA; expressed in transfected cells
T1 sequence (P47871 26-477): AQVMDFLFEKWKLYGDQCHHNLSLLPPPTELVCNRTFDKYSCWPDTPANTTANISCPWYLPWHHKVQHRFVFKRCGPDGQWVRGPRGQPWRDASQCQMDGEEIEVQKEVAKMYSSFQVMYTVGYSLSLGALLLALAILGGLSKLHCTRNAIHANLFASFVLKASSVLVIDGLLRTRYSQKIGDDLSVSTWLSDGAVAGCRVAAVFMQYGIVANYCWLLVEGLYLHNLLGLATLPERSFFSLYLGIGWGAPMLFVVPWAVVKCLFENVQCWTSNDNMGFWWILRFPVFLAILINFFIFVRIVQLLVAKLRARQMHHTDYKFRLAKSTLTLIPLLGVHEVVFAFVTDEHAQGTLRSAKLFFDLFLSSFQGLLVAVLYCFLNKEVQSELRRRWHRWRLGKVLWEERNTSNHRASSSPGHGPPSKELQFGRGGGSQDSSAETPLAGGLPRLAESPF
Experiment: cAMP activity of glucagon derivatives in CHO cell line transfected with human glucagon receptor (LANCE cAMP kit)
Format: cell-based
Details: cAMP EC50 compared with that of native glucagon; CHO cells with human glucagon receptor
Procedure: PCR was performed using a region corresponding to Open Reading Frame (ORF) in the cDNA (OriGene Technologies, Inc., USA) of human glucagon receptor gene as a template along with the following forward and reverse primers (SEQ ID NOS: 47 and 48, respectively), which include each of the EcoRI and XhoI restriction sites.
The PCR product was cloned into a known animal cell expression vector, x0GC/dhfr, to prepare a recombinant vector x0GC/GCGR.
CHO DG44 cell line cultured in DMEM/F12 (10% FBS) medium was transfected with the recombinant vector x0GC/GCGR using LIPOFECTAMINE®, and cultured in a selection medium containing G418 (1 mg/mL) and methotraxate (10 nM).
Specifically, the transfected cell line was subcultured 3 to 4 times a week, aliquoted into a 384-well plate in an amount of 6×10^3 cell lines/well, and cultured for 24 hours. Native glucagon and glucagon derivatives were suspended in Hank's balanced salt solution (HBSS) buffer containing 0.5 mM of 3-isobutyl-1-methylxanthine (IBMX), 0.1% bovine serum albumin (BSA), and 5 mM 4-(2-hydroxyethyl)-1-piperazineethanesulfonic acid (HEPES) with the culture cells, at concentrations of 200 nM and 1600 nM, respectively, continuously subjected into a 4-fold dilution 10 times, applied to a cAMP assay kit (LANCE cAMP 384 kit, PerkinElmer), and added to the cultured cells, and their fluorescence value was measured.
For “YXQGTFTSDYSKYLDEKRAKEFVQWLMNTC (Y[Aib]QGTFTSDYSKYLDEKRAKEFVQWLMNTC; bridge 16-20) [SEQ ID NO: 12, glucagon derivative, X = Aib]”, the “In vitro Activity (Relative Activity of SEQ ID NO: 1, %)” value was 56.3%.
For “YXQGTFTSDYSKYLDEKRCKEFVQWLMNT (Y[Aib]QGTFTSDYSKYLDEKRCKEFVQWLMNT; bridge 16-20) [SEQ ID NO: 22, glucagon derivative, X = Aib]”, the “In vitro Activity (Relative Activity of SEQ ID NO: 1, %)” value was 147.8%.
In the case of “YXQGTFTSDYSKYLDERRAKEFVQWLMNTC (Y[Aib]QGTFTSDYSKYLDERRAKEFVQWLMNTC; bridge 16-20) [SEQ ID NO: 37, glucagon derivative, X = Aib]”, the “In vitro Activity (Relative Activity of SEQ ID NO: 1, %)” value is reported as 225.5%.
With “YXQGTFTSDYSKYLDSCDADDFVVWLINT (Y[Aib]QGTFTSDYSKYLDSCDADDFVVWLINT) [SEQ ID NO: 10, glucagon derivative, X = Aib]” the “In vitro Activity (Relative Activity of SEQ ID NO: 1, %)” value was less than 0.1%.
With “YXQGTFTSDYSKYLDSCDAQDFVQWLINT (Y[Aib]QGTFTSDYSKYLDSCDAQDFVQWLINT) [SEQ ID NO: 8, glucagon derivative, X = Aib]” the “In vitro Activity (Relative Activity of SEQ ID NO: 1, %)” value was less than 0.1%.
For “YXQGTFTSDYSKYLDSCDAQDFVVWLINT (Y[Aib]QGTFTSDYSKYLDSCDAQDFVVWLINT) [SEQ ID NO: 9, glucagon derivative, X = Aib]”, the “In vitro Activity (Relative Activity of SEQ ID NO: 1, %)” value was less than 0.1%.
In the case of “YXQGTFTSDYSKYLDSRRACDFRLWLMNT (Y[Aib]QGTFTSDYSKYLDSRRACDFRLWLMNT) [SEQ ID NO: 18, glucagon derivative, X = Aib]”, the “In vitro Activity (Relative Activity of SEQ ID NO: 1, %)” value is reported as less than 0.1%.
For “YXQGTFTSDYSKYLDSRRAQDFVQWLMNT (Aib at position 2; glucagon derivative; (2) Xaa is aminoisobutyric acid (Aib)) [SEQ ID NO: 33, glucagon derivative, X = Aib]”, the “In vitro Activity (Relative Activity of SEQ ID NO: 1, %)” value was 108.2%.
For “YXQGTFTSDYSKYLDSRRAQDFVQWLMNTC (Aib at position 2; glucagon derivative; (2) Xaa is aminoisobutyric acid (Aib)) [SEQ ID NO: 44, glucagon derivative, X = Aib]”, the “In vitro Activity (Relative Activity of SEQ ID NO: 1, %)” value was 75.4%.
With “YXQGTFVSDCSKYLDERRAKDFVQWLMNT (Y[Aib]QGTFVSDCSKYLDERRAKDFVQWLMNT; bridge 16-20) [SEQ ID NO: 39, glucagon derivative, X = Aib]” the “In vitro Activity (Relative Activity of SEQ ID NO: 1, %)” value was 3.7%.
With “YXQGTFVSDYSKYLDECRAKDFVQWLMNT (Y[Aib]QGTFVSDYSKYLDECRAKDFVQWLMNT; bridge 16-20) [SEQ ID NO: 27, glucagon derivative, X = Aib]” the “In vitro Activity (Relative Activity of SEQ ID NO: 1, %)” value was 93.6%.
For “YXQGTFVSDYSKYLDERRAKDFVQWLMNTC (Y[Aib]QGTFVSDYSKYLDERRAKDFVQWLMNTC; bridge 16-20) [SEQ ID NO: 40, glucagon derivative, X = Aib]”, the “In vitro Activity (Relative Activity of SEQ ID NO: 1, %)” value was 40.8%.

System: not given
Experiment: not given
Details: when taken for one year; cited from earlier work
For CCCCCCCCCCC[C@@H](C[C@@H]1OC(=O)[C@H]1CCCCCC)OC(=O)[C@H](CC(C)C)NC=O [ORLISTAT], the weight loss is given as “about 4 kg”.
